Where a chain is given by its changes, count along the chain named. Numbers in names are those of the source.
B1: anti-CD20 (rituximab) human IgG1 L234A/L235A/K322A (antibody)
heavy: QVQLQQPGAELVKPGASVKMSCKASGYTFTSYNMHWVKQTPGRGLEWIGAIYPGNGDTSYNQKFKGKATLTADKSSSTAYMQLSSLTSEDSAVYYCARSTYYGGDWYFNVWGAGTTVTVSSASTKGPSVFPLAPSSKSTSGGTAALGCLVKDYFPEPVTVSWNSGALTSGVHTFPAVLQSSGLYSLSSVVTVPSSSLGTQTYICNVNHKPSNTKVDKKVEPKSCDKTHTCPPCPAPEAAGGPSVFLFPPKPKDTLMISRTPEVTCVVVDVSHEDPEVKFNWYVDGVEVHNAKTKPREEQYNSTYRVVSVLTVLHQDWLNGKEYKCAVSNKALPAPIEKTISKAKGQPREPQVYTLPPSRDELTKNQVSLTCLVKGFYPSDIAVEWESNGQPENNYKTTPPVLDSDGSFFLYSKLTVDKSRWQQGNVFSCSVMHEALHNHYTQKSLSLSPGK
light: QIVLSQSPAILSASPGEKVTMTCRASSSVSYIHWFQQKPGSSPKPWIYATSNLASGVPVRFSGSGSGTSYSLTISRVEAEDAATYYCQQWTSNPPTFGGGTKLEIKRTVAAPSVFIFPPSDEQLKSGTASVVCLLNNFYPREAKVQWKVDNALQSGNSQESVTEQDSKDSTYSLSSTLTLSKADYEKHKVYACEVTHQGLSSPVTKSFNRGEC
notes: EU numbering; also called 2-74; copies: 2 + 2
B2: anti-CD20 (rituximab) human IgG1 L234Q/L235T/G236R (antibody)
heavy: QVQLQQPGAELVKPGASVKMSCKASGYTFTSYNMHWVKQTPGRGLEWIGAIYPGNGDTSYNQKFKGKATLTADKSSSTAYMQLSSLTSEDSAVYYCARSTYYGGDWYFNVWGAGTTVTVSSASTKGPSVFPLAPSSKSTSGGTAALGCLVKDYFPEPVTVSWNSGALTSGVHTFPAVLQSSGLYSLSSVVTVPSSSLGTQTYICNVNHKPSNTKVDKKVEPKSCDKTHTCPPCPAPEQTRGPSVFLFPPKPKDTLMISRTPEVTCVVVDVSHEDPEVKFNWYVDGVEVHNAKTKPREEQYNSTYRVVSVLTVLHQDWLNGKEYKCKVSNKALPAPIEKTISKAKGQPREPQVYTLPPSRDELTKNQVSLTCLVKGFYPSDIAVEWESNGQPENNYKTTPPVLDSDGSFFLYSKLTVDKSRWQQGNVFSCSVMHEALHNHYTQKSLSLSPGK
light: B1 light
notes: EU numbering; also called 1-120; copies: 2 + 2
B3: anti-CD20 (rituximab) human IgG1 L234F/L235E/P331S (antibody)
heavy: B2 heavy with Q238F, T239E, R240G, P335S
light: B1 light
notes: EU numbering; also called 2-75; copies: 2 + 2
B4: anti-CD20 (rituximab) human IgG1 L234D/L235K/G236R (antibody)
heavy: B2 heavy with Q238D, T239K
light: B1 light
notes: EU numbering; also called 2-7; 1-23; copies: 2 + 2
B5: anti-CD20 (rituximab) human IgG1 L234K/L235S/G236R (antibody)
heavy: B2 heavy with Q238K, T239S
light: B1 light
notes: EU numbering; also called 2-24; 1-89; copies: 2 + 2
B6: anti-CD20 (rituximab) human IgG1 L234S/L235R/G236R (antibody)
heavy: B2 heavy with Q238S, T239R
light: B1 light
notes: EU numbering; also called 2-51; copies: 2 + 2
B7: anti-CD20 (rituximab) human IgG1 L234S/L235H/G236R (antibody)
heavy: B2 heavy with Q238S, T239H
light: B1 light
notes: EU numbering; also called 2-48; copies: 2 + 2
B8: anti-CD20 (rituximab) human IgG1 L234R/L235K/G236R (antibody)
heavy: B2 heavy with Q238R, T239K
light: B1 light
notes: EU numbering; also called 2-40; copies: 2 + 2
B9: anti-CD20 (rituximab) human IgG1 L234R/L235I/G236R (antibody)
heavy: B2 heavy with Q238R, T239I
light: B1 light
notes: EU numbering; also called 2-39; copies: 2 + 2
B10: anti-CD20 (rituximab) human IgG1 L234T/L235R/G236R (antibody)
heavy: B2 heavy with Q238T, T239R
light: B1 light
notes: EU numbering; also called 2-61; copies: 2 + 2
B11: anti-CD20 (rituximab) human IgG1 L234R/L235H/G236R (antibody)
heavy: B2 heavy with Q238R, T239H
light: B1 light
notes: EU numbering; also called 2-38; copies: 2 + 2

The binders below were run against T1, human FcRn (R&D Systems Cat. No. 8639-Fc) (human, UniProt P55899 24-297; P61769 21-119) (assay: SPR, FcRn captured; Mean).

Corrected and normalised response (% of wild-type reference)	Binder
94 % of wild-type reference	B1
95.3 % of wild-type reference	B2
96.5 % of wild-type reference	B3
94.3 % of wild-type reference	B4
100 % of wild-type reference	B5

Each binder was assayed against T1, human FcRn (R&D Systems Cat. No. …) (assay: SPR, FcRn captured; Expt 1).

Corrected and normalised response (% of wild-type reference)	Binder
94 % of wild-type reference	B1
95.6 % of wild-type reference	B2
96.1 % of wild-type reference	B3
94.9 % of wild-type reference	B4
100 % of wild-type reference	B5

Each binder was assayed against T1, human FcRn (R&D Systems Cat. No. …) (assay: SPR, FcRn captured; Expt 2).

Corrected and normalised response (% of wild-type reference)	Binder
94.7 % of wild-type reference	B1
95.1 % of wild-type reference	B2
97.1 % of wild-type reference	B3
93.7 % of wild-type reference	B4
99.7 % of wild-type reference	B5

Each binder was assayed against T1, human FcRn (R&D Systems Cat. No. …) (assay: SPR, FcRn captured; Expt 3).

Corrected and normalised response (% of wild-type reference)	Binder
93.3 % of wild-type reference	B1
95.2 % of wild-type reference	B2
96.3 % of wild-type reference	B3
94.1 % of wild-type reference	B4
100 % of wild-type reference	B5

These binders were tested against T2, Human C1q (Sigma Cat. No. 20476), HRP-labelled (human, UniProt P02745 23-245; P02746 28-253; P02747 29-245) (assay: ELISA, antibody coated, HRP-C1q; Expt 1, buffer alone 0.061).
T2 construct: Coupled to horse-radish peroxidase with Lightning-Link kit; also called HRP-labelled C1q

Mean Absorbance	Binder
0.037 absorbance (450 nm)	B6
0.04 absorbance (450 nm)	B7
0.055 absorbance (450 nm)	B8
0.169 absorbance (450 nm)	B9
0.047 absorbance (450 nm)	B10
0.049 absorbance (450 nm)	B4
0.062 absorbance (450 nm)	B11

— US20230235013A1 (MABSOLVE, published 2023)
